Substitutions are numbered along the chain they refer to. Names may count otherwise.

These results are taken from patent publication US7183387 (Genentech, dated 2007).

Test [1] addresses T1, human FcγRIIA-His131 α subunit extracellular domain-His6-GST fusion (human, UniProt P12318 34-217).
T1 construct: extracellular domain; also called FcγRIIA-H131; not shown: glutathione S transferase (GST)
T1 sequence: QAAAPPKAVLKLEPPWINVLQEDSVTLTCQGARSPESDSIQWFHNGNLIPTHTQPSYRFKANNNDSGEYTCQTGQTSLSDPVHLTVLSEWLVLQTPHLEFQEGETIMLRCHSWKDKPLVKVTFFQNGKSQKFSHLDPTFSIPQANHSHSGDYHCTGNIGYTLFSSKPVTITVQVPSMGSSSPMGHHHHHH
In words: hexamer ELISA.

Test [2] has as its target T2, human FcγRIIA-Arg131 α subunit extracellular domain-His6-GST fusion (human, UniProt P12318 34-217).
T2 construct: extracellular domain; also called FcγRIIA-R131; not shown: glutathione S transferase (GST)
T2 sequence: T1 sequence with H134R
Kind of test: hexamer ELISA. A general note: ELISA stands for enzyme-linked immunosorbent assay.

The target in test [3] is T3, human FcγRIIB α subunit extracellular domain-His6-GST fusion (human, UniProt P31994 43-217).
T3 construct: extracellular domain; also called CD32; not shown: glutathione S transferase (GST)
T3 sequence: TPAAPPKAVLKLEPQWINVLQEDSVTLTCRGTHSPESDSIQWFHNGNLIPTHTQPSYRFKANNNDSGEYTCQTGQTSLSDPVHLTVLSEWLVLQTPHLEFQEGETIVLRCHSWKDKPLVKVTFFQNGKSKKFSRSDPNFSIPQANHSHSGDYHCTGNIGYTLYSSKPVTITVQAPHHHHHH
Kind of test: hexamer ELISA.

Test [4] deals with T4, human FcγRIIIA-Phe158 α subunit extracellular domain-His6-GST fusion (human, UniProt P08637 17-208).
T4 construct: extracellular domain; also called FcγRIIIA-F158; CD16; not shown: glutathione S transferase (GST)
T4 sequence (P08637 other isoform, or with tags, fused parts or gaps): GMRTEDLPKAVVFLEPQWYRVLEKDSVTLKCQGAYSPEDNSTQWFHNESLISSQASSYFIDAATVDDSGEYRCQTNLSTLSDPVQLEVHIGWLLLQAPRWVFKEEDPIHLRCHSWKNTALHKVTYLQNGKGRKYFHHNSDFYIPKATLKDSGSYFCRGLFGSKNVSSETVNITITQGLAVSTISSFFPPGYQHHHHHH
In words: hexamer ELISA.

Test [5] concerns the target T5, human neonatal Fc receptor (FcRn), biotinylated (human, UniProt P55899 24-297; P61769 21-119, biotinylated (biotin-X-NHS)).
T5 construct: captured on streptavidin plates
In words: FcRn ELISA, pH 6.0.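 Note: Streptavidin-captured FcRn plates, IgG variants titrated 2 h at pH 6.0, peroxidase anti-human IgG read at 450 nm, variant over standard concentration at the standard curve mid-point absorbance.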
Procedure: FcRn Binding ELISA: For measuring FcRn binding activity of IgG variants, ELISA plates were coated with 2 µg/ml streptavidin (Zymed, South San Francisco) in 50 mM carbonate buffer, pH 9.6, at 4° C. overnight and blocked with PBS-0.5% BSA, pH 7.2 at room temperature for one hour. Biotinylated FcRn (prepared using biotin-X-NHS from Research Organics, Cleveland, Ohio and used at 1–2 µg/ml) in PBS-0.5% BSA, 0.05% polysorbate 20, pH 7.2, was added to the plate and incubated for one hour. Two fold serial dilutions of IgG standard (1.6–100 ng/ml) or variants in PBS-0.5% BSA, 0.05% polysorbate 20, pH 6.0, were added to the plate and incubated for two hours. Bound IgG was detected using peroxidase labeled goat F(ab')_2 anti-human IgG F(ab')_2 in the above pH 6.0 buffer (Jackson ImmunoResearch, West Grove, Pa.) followed by 3,3',5,5'-tetramethyl benzidine (Kirgaard & Perry Laboratories) as the substrate. Plates were washed between steps with PBS-0.05% TWEEN 20® at either pH 7.2 or 6.0. Absorbance was read at 450 nm on a Vmax plate reader (Molecular Devices, Menlo Park, Calif.). Titration curves were fit with a four-parameter nonlinear regression curve-fitting program (KaleidaGraph, Synergy software, Reading, Pa.). Concentrations of IgG variants corresponding to the mid-point absorbance of the titration curve of the standard were calculated and then divided by the concentration of the standard corresponding to the mid-point absorbance of the standard titration curve.

Test [6] addresses T6, human FcγRIA α subunit extracellular domain-His6-GST fusion (human, UniProt P12314 16-292).
T6 construct: extracellular domain; also called GST-FcγRIA; CD64; not shown: glutathione S transferase (GST)
In words: FcγRI ELISA and THP-1 cells, averaged.

Test [7] addresses T7, human FcγRIIIA-Val158 α subunit extracellular domain-His6-GST fusion protein (human, UniProt P08637 17-208).
T7 construct: ELISA-format target; also called FcγRIIIA-V158; not shown: glutathione S-transferase (GST)
Kind of test: ELISA format, hexameric complex on FcγRIIIA-Val158.

Test [8] deals with T8, human FcγRIIIA-Phe158 with human γ-chain on stably transfected CHO cells (human, UniProt P08637 17-254; P30273 19-86).
T8 construct: whole, on cells; CHO cells stably transfected with the α- and γ-chains of the receptor; also called FcγRIIIA-Phe158 (cell-based assay)
T8 sequence (P08637 17-254, chain 1 of 2): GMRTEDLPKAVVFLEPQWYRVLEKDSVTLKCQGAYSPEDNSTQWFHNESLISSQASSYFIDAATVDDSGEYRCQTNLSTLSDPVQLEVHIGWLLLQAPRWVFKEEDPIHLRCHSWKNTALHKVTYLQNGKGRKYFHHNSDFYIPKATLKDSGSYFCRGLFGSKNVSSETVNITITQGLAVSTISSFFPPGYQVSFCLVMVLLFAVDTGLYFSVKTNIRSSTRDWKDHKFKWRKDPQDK
T8 sequence (P30273 19-86, chain 2 of 2): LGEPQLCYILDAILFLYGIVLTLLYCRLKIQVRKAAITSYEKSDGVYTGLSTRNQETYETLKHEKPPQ
Kind of test: flow cytometry, monomeric IgG on CHO cells with FcγRIIIA-Phe158 α- and γ-chains. Background: A flow cytometer gives signals particle by particle.
Procedure: CHO cell transfection was carried out using Superfect (Qiagen) according to the manufacturer's instructions. […] Receptor expression levels were determined by staining with anti-FcγRIII monoclonal antibody 3G8 (Medarex). Binding of IgG1 variants was performed by adding monomeric IgG in staining buffer to 5×10^5 cells and incubating in 96 well round-bottom tissue culture plates (Costar, Cambridge, Mass.) at 4° C. for 30 min. Cells were washed three times with staining buffer and IgG binding detected by addition of 1:200 PE-F(ab')_2 fragment of goat anti-human IgG and incubation for 30 min at 4° C. After washing, immunofluorescence staining was analyzed on a FACScan flow cytometer using Cellquest software (Becton Dickinson). Dead cells were excluded from analysis by addition of 1 μg/ml propidium iodide.
For FcγRIIIA, the selected variants were assayed in the ELISA-format as well as on stable-transfected CHO cell lines expressing the γ-chains (FcγRIIIA-Phe158 or FcγRIIIA-Val158) with the associated human α-chain.

The target in test [9] is T9, human FcγRIIIA-Val158 with human γ-chain on stably transfected CHO cells (human, UniProt P08637 17-254; P30273 19-86).
T9 construct: whole, on cells; CHO cells stably transfected with the α- and γ-chains of the receptor; also called FcγRIIIA-Val158 (cell-based assay); FcγRIIIA-V158
T9 sequence (P08637 17-254 F176V, chain 1 of 2): as the sequence (P08637 17-254, chain 1 of 2) above, with F160V counted along it
T9 sequence (P30273 19-86, chain 2 of 2): as the sequence (P30273 19-86, chain 2 of 2) above
Kind of test: flow cytometry, monomeric IgG on CHO cells with FcγRIIIA-Val158 α- and γ-chains.

In test [10] the target is T10, human FcγRIIIA-Phe158 α subunit extracellular domain-His6-GST fusion protein (human, UniProt P08637 17-208).
T10 construct: ELISA-format target; also called FcγRIIIA-F158; not shown: glutathione S-transferase (GST)
T10 sequence (P08637 other isoform, or with tags, fused parts or gaps, form in doubt): as the sequence (P08637 other isoform, or with tags, fused parts or gaps) above
Kind of test: ELISA format, hexameric complex on FcγRIIIA-Phe158; separate assays run together with the Val158 assays.

For test [11], the target named is T10, human FcγRIIIA-Phe158 α subunit …. Kind of test: ELISA, IgG:IgE hexamer on coated FcγRIIIA-Phe158-GST; value carried over from an earlier table (printed in Table 8).
Test [12] concerns the target T11, human FcγRIIA-H131 α subunit extracellular domain-His6-GST fusion protein (human, UniProt P12318 34-217).
T11 construct: also called FcγRIIA-His131; not shown: glutathione S-transferase (GST)
T11 sequence: T1 sequence
In words: ELISA, IgG:IgE hexamer on coated FcγRIIA-H131-GST.

In test [13] the target is T11, human FcγRIIA-H131 α subunit …. Kind of test: ELISA; binding ratio on FcγRIIA-H131 divided by that on FcγRIIA-R131.
Test [14] concerns the target T12, human FcγRIIA-R131 α subunit extracellular domain-His6-GST fusion protein (human, UniProt P12318 34-217).
T12 construct: ECD-6His-GST fusion made in 293 cells, coated on the plate; also called FcγRIIA-Arg131; not shown: glutathione S-transferase (GST)
T12 sequence: T1 sequence with H134R
In words: ELISA, IgG:IgE hexamer on coated FcγRIIA-R131-GST; separate assays run together with the H131 assays.

For test [15], the target named is T12, human FcγRIIA-R131 α subunit …. Kind of test: ELISA, IgG:IgE hexamer on coated FcγRIIA-R131-GST; value said to be carried over from Table 6, 7 or 8.
The target in test [16] is T13, human FcγRIIA-R131 α subunit extracellular domain-6His-GST fusion (human, UniProt P12318 34-217).
T13 construct: also called FcγRIIA-Arg131; not shown: glutathione S-transferase (GST)
T13 sequence: T1 sequence with H134R
Kind of test: ELISA, IgG:IgE hexamers on receptor-GST.

Test [17] deals with T14, human FcγRIIA-H131 α subunit extracellular domain-6His-GST fusion (human, UniProt P12318 34-217).
T14 construct: also called FcγRIIA-His131; not shown: glutathione S-transferase (GST)
T14 sequence: T1 sequence
In words: ELISA, IgG:IgE hexamers on receptor-GST.

Test [18] concerns the target T15, human FcγRIIB α subunit extracellular domain-6His-GST fusion (human, UniProt P31994 43-217).
T15 construct: not shown: glutathione S-transferase (GST)
T15 sequence: T3 sequence
In words: ELISA, IgG:IgE hexamers on receptor-GST.

For test [19], the target named is T16, human FcγRIIIA-F158 α subunit extracellular domain-6His-GST fusion (human, UniProt P08637 17-208).
T16 construct: also called FcγRIIIA-Phe158; not shown: glutathione S-transferase (GST)
T16 sequence (P08637 other isoform, or with tags, fused parts or gaps, form in doubt): as the sequence (P08637 other isoform, or with tags, fused parts or gaps) above
In words: ELISA, IgG:IgE hexamers on receptor-GST.

The target of test [20] is T4, human FcγRIIIA-Phe158 α subunit …. In words: hexamer ELISA. This is another data set of the same source.
Test [21] deals with T5, human neonatal Fc receptor (FcRn), …. In words: FcRn ELISA.
Procedure: FcRn Binding ELISA: For measuring FcRn binding activity of IgG variants, ELISA plates were coated with 2 µg/ml streptavidin (Zymed, South San Francisco) in 50 mM carbonate buffer, pH 9.6, at 4° C. overnight and blocked with PBS-0.5% BSA, pH 7.2 at room temperature for one hour. Biotinylated FcRn (prepared using biotin-X-NHS from Research Organics, Cleveland, Ohio and used at 1–2 µg/ml) in PBS-0.5% BSA, 0.05% polysorbate 20, pH 7.2, was added to the plate and incubated for one hour. Two fold serial dilutions of IgG standard (1.6–100 ng/ml) or variants in PBS-0.5% BSA, 0.05% polysorbate 20, pH 6.0, were added to the plate and incubated for two hours. Bound IgG was detected using peroxidase labeled goat F(ab')_2 anti-human IgG F(ab')_2 in the above pH 6.0 buffer (Jackson ImmunoResearch, West Grove, Pa.) followed by 3,3',5,5'-tetramethyl benzidine (Kirgaard & Perry Laboratories) as the substrate. […] Absorbance was read at 450 nm on a Vmax plate reader (Molecular Devices, Menlo Park, Calif.). Titration curves were fit with a four-parameter nonlinear regression curve-fitting program (KaleidaGraph, Synergy software, Reading, Pa.). Concentrations of IgG variants corresponding to the mid-point absorbance of the titration curve of the standard were calculated and then divided by the concentration of the standard corresponding to the mid-point absorbance of the standard titration curve.
Test [22] has as its target T2, human FcγRIIA-Arg131 α subunit …. Kind of test: hexamer ELISA (row shifted).
The target in test [23] is T3, human FcγRIIB α subunit extracellular …. Kind of test: hexamer ELISA (row shifted).
Test [24] deals with T4, human FcγRIIIA-Phe158 α subunit …. In words: hexamer ELISA (row shifted).
Test [25] deals with T6, human FcγRIA α subunit extracellular …. Kind of test: FcγRI ELISA and THP-1 cells, averaged (row shifted).

T5 sequence (P55899 24-297 limits assumed, chain 1 of 2): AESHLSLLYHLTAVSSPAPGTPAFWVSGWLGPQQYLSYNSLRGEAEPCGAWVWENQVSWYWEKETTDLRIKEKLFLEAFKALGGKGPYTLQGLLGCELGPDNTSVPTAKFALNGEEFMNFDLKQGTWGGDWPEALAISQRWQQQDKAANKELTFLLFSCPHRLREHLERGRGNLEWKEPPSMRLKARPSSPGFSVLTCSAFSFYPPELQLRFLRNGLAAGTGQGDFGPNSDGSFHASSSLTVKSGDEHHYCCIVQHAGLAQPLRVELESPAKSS
T5 sequence (P61769 21-119 limits assumed, chain 2 of 2): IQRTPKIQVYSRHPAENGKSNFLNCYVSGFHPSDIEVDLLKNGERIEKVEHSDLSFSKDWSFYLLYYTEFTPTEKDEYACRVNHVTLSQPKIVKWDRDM
T6 sequence (P12314 other isoform, or with tags, fused parts or gaps): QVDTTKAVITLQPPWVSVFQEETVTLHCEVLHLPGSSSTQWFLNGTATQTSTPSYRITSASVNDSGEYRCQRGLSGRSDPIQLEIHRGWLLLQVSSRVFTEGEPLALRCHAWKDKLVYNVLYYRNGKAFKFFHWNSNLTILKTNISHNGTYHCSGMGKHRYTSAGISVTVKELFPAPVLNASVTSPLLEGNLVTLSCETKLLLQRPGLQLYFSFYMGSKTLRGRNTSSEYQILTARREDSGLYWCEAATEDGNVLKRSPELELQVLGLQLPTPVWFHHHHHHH
T7 sequence (P08637 other isoform, or with tags, fused parts or gaps, form in doubt): as the sequence (P08637 other isoform, or with tags, fused parts or gaps) above, with F160V counted along it

B1: anti-IgE E27 IgG1 Asp270Ala (antibody)
heavy: not shown
light: DIQLTQSPSSLSASVGDRVTITCRASKPVDGEGDSYLNWYQQKPGKAPKLLIYAASYLESGVPSRFSGSGSGTDFTLTISSLQPEDFATYYCQQSHEDPYTFGQGTKVEIKRTVAAPSVFIFPPSDEQLKSGTASVVCLLNNFYPREAKVQWKVDNALQSGNSQESVTEQDSKDSTYSLSSTLTLSKADYEKHKVYACEVTHQGLSSPVTKSFNRGEC
notes: also called D270(283)A
In the case of B1, in test [1], the “reduction in binding against native IgG1” value stood at 50%. Further, the “ratio to native IgG1” value in test [2] was 0.06 ratio; in [3], 0.1 ratio; in [4], 0.14 ratio; in test [5] it was 1.05 ratio; in test [6], 0.76 ratio.

B2: anti-IgE E27 IgG1 variant Ser298Ala/Glu333Ala/Lys334Ala (antibody)
heavy: EVQLVESGGGLVQPGGSLRLSCAVSGYSITSGYSWNWIRQAPGKGLEWVASIKYSGETKYNPSVKGRITISRDDSKNTFYLQMNSLRAEDTAVYYCARGSHYFGHWHFAVWGQGTLVTVSSASTKGPSVFPLAPSSKSTSGGTAALGCLVKDYFPEPVTVSWNSGALTSGVHTFPAVLQSSGLYSLSSVVTVPSSSLGTQTYICNVNHKPSNTKVDKKVEPKSCDKTHTCPPCPAPELLGGPSVFLFPPKPKDTLMISRTPEVTCVVVDVSHEDPEVKFNWYVDGVEVHNAKTKPREEQYNATYRVVSVLTVLHQDWLNGKEYKCKVSNKALPAPIAATISKAKGQPREPQVYTLPPSREEMTKNQVSLTCLVKGFYPSDIAVEWESNGQPENNYKTTPPVLDSDGSFFLYSKLTVDKSRWQQGNVFSCSVMHEALHNHYTQKSLSLSPGK
light: B1 light
notes: also called IG2 110
Consider B2, for which the “ratio of binding of the variant to that of native IgG1” value is 1.11 ratio (variant/native IgG1) in test [7]; 3.42 ratio (variant/native IgG1) in test [8]; 1.65 ratio (variant/native IgG1) in test [9]; 2.17 ratio (variant/native IgG1) in test [10]; 1.51 ratio (variant/native IgG1) in test [11].

B3: anti-IgE E27 IgG1 variant Lys320Ala (antibody)
heavy: not shown
light: B1 light
notes: also called K320(339)A; IG2 48
Take B3: the “ratio of binding of the variant to that of native IgG1” value in [12] was 1.13 ratio (variant/native IgG1); in test [14], 1.05 ratio (variant/native IgG1); in test [15], 1.14 ratio (variant/native IgG1). The H131/R131 in [13] is 1.1 ratio (H131 value/R131 value).

B4: E27 IgG1 variant S267(280)G (antibody)
heavy: not shown
light: B1 light
notes: also called IG2 189
Consider B4, for which the “ratio to native IgG1” value in test [16] came to 1.18; in [17], 0.59; in [18] it was 0.95; in [19], 0.08.

B5: anti-IgE E27 IgG1 Ser267Gly (antibody)
heavy: not shown
light: B1 light
On to B5, for which, in [20], the binding result is recorded as “no binding”. In test [1], the “reduction in binding against native IgG1” value was determined as 50%.

B6: anti-IgE E27 IgG1 T307Q (antibody)
heavy: not shown
light: B1 light
In the case of B6, the binding result in test [21] is on record as “binds”.

B7: anti-IgE E27 IgG1 Ser254Ala (antibody)
heavy: not shown
light: B1 light
B7: the “ratio to native IgG1” value in test [5] was less than 0.1 ratio; in test [22] it was 0.97 ratio; in test [23], 1.15 ratio; in [24], 0.73 ratio; in test [25], 0.96 ratio.

B8: anti-IgE E27 IgG1 Tyr436Ala (antibody)
heavy: not shown
light: B1 light
Regarding B8, the “ratio to native IgG1” value is less than 0.1 ratio in test [5]; 0.93 ratio in test [22]; 0.91 ratio in test [23]; 0.91 ratio in test [24]; 0.99 ratio in [25].
